The source of these data is paper PMC12316515, “PIF4‐dependent 2‐hydroxymelatonin and 3‐hydroxymelatonin biosynthesis is involved in skotomorphogenic seedling growth in Arabidopsis thaliana”.

What is called Km is the concentration of substrate that gives half-maximal velocity.

The target in data set [1] is T1, Trx-PIF4 (Arabidopsis thaliana, UniProt Q8W2F3 1-430).
T1 sequence: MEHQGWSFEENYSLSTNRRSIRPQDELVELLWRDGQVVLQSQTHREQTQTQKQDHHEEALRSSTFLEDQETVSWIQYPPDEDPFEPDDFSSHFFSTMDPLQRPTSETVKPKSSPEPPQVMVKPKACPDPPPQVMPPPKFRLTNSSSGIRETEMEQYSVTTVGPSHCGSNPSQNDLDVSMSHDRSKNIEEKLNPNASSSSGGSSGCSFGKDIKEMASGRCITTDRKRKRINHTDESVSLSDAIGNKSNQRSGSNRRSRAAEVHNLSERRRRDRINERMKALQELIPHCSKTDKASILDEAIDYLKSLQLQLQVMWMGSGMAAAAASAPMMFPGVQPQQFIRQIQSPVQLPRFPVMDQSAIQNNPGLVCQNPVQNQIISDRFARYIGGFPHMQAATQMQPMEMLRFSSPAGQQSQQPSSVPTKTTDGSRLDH
As to the kind of experiment: EMSA; LightShift Chemiluminescent EMSA Kit, 100 fmol biotin-labeled DNA, 20 min at room temperature, native 6% PAGE in 0.5x TBE; binding buffer, salt and pH not stated. The following applies: protein: recombinant; tags: N-terminal Trx (pET32b); label: 3' biotin.

Data set [2] has as its target T1, Trx-PIF4. As to the kind of experiment: EMSA; greatest binding of the probes; LightShift Chemiluminescent EMSA Kit, 100 fmol biotin-labeled DNA, 20 min at room temperature, native 6% PAGE in 0.5x TBE; binding buffer, salt and pH not stated. The following applies: protein: recombinant; tags: N-terminal Trx (pET32b); label: 3' biotin. Background: In EMSA bound probe runs differently from free probe, usually more slowly.

Substrate in data set [3]: COc1ccc2[nH]cc(CCNC(C)=O)c2c1
Description: purified protein. The following applies: pH 8.0, GST fusion protein, substrate not named beside the value, implied by M2H activity.

B1: M2H E2 (dsDNA)
DNA 1: GATGACTATTTTCATTTGATAATATATCCA
DNA 2: TGGATATATTATCAAATGAAAATAGTCATC
In the case of B1, the binding result in data set [1] is “binds”.

B2: M3H E3 (dsDNA)
DNA 1: CAATGTTAAAGACACATGAACGTTGGGATA
DNA 2: TATCCCAACGTTCATGTGTCTTTAACATTG
Regarding B2, the binding result in data set [2] was “binds”.

B3: M3H E1/E2 (dsDNA)
DNA 1: CATACCATATGTCTTTTATCATCTGTCCTT
DNA 2: AAGGACAGATGATAAAAGACATATGGTATG
As for B3, the binding result in data set [1] was “binds”.

B4: AtM2H (Arabidopsis melatonin 2-hydroxylase) (Arabidopsis thaliana) (protein)
chain: MEETNKSVVNDYFTSAMELTESGDPHVPTRYILPPSQRPMLGPSIGTSTINLPVIDLSFLHDPLLRLCVIHEIELACKGFGFFQVINHGISSAVVKDAQDSATRFFDLPADEKMHLVSDNFQEPVRYGTSINHSTDRVHYWRDFIKHYSHPLSNWINLWPSNPPCYKEKVGKYAEATHVLHKQLIEAISESLGLEKNYLQEEIEEGSQVMAVNCYPACPEPEIALGMPPHSDYGSLTILLQSSEGLQIKDCNNNWVCVPYIEGALIVQLGDQVEVMSNGIYKSVVHRVTVNKDYKRLSFASLHSLPMHKKISPATQLVNENKPAAYGEFSFNDFLDYISRNDITQKRFIDTLRKKNL
As for B4, in data set [3], the Km is 355 µM.
